Patent US20250186503A1, “METHODS AND COMBINATIONS FOR TREATMENT AND T CELL MODULATION” (Juno Therapeutics, Inc., priority 2018, published 2025)

Tested on: anti-BCMA CARs
Experiment: Binding of BCMA-Fc fusion protein to CAR-expressing T cells (flow cytometry)
Procedure: The clone encoding the human BCMA-Fc fusion construct with the N-terminal CD33 leader sequence (SEQ ID NO: 21) was inserted into an expression vector and expressed in HEK 293 cells. The resulting BCMA-Fc fusion protein was determined to have a purity of greater than 95% as assessed by gel permeation chromatography.

B1: BCMA-Fc fusion protein: extracellular domain of human BCMA and a human IgG1 Fc connected with a linker (SEQ ID NO: 22) (protein)
chain: MPLLLLLPLLWAGALAMLQMAGQCSQNEYFDSLLHACIPCQLRCSSNTPPLTCQRYCNASVTNSVKGTNAGGGGSPKSSDKTHTCPPCPAPEAEGAPSVFLFPPKPKDTLMISRTPEVTCVVVDVSHEDPEVKFNWYVDGVEVHNAKTKPREEQYNSTYRVVSVLTVLHQDWLNGKEYKCKVSNKALPSSIEKTISKAKGQPREPQVYTLPPSRDELTKNQVSLTCLVKGFYPSDIAVEWESNGQPENNYKTTPPVLDSDGSFFLYSKLTVDKSRWQQGNVFSCSVMHEALHNHYTQKSLSLSPGK
modifications: BCMA-Fc construct
binding to anti-BCMA CAR expressing T cells: specifically bound
